Measured values: article PMC12305242, “Native Top–Down Analysis of Membrane Protein Complexes Directly From In Vitro and Native Membranes” (Molecular & Cellular Proteomics : MCP, 2025)

Columns and labels:
[1] = biological target: T1, β-barrel–assembly machinery (BAM) complex (Escherichia coli, UniProt P0A940); test: native MS of membrane vesicles, complex-up (HCD) of bound species; type: binding; details: 100 uM MRL-494, 1 h on ice, native E. coli membrane vesicles; bound to the complex, subunit not resolved
T1 construct: gene bamA; endogenous, untagged heteropentamer BAM-ABCDE, lipidated proteoforms, about 199 kDa, ejected from native E. coli BL21 membrane vesicles; with Outer membrane protein assembly factor BamB; Outer membrane protein assembly factor BamC; Outer membrane protein assembly factor BamD; Outer membrane protein assembly factor BamE

[2] = biological target: T2, dihydrolipoyl dehydrogenase (DLDH) (Escherichia coli, UniProt P0A9P0); test: native MS complex-up (HCD), mass shift of ejected monomer; type: binding; details: endogenous ligand, native E. coli membrane vesicles; ligand identified by added mass and database search
T2 construct: gene lpdA; endogenous, untagged, ejected from native E. coli BL21 membrane vesicles
T2 sequence (P0A9P0 2-474): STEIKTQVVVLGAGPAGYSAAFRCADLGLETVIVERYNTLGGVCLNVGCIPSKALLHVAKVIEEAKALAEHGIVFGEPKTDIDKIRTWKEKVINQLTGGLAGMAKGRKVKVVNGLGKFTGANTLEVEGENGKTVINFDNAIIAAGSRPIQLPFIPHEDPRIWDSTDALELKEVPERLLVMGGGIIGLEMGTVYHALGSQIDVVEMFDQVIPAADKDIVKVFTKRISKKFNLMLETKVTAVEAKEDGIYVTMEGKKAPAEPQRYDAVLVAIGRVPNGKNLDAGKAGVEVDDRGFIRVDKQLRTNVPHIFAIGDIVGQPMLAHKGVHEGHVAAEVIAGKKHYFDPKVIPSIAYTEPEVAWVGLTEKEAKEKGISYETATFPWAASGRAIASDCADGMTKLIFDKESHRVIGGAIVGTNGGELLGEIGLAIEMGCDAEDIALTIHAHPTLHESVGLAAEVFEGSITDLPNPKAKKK

AqpZ, P60844 = biological target: T3, AqpZ, P60844; test: native MS; purified protein reconstituted into proteoliposomes (E. coli Polar Lipid Extract, 200 mM NH4Ac), 0.1% (v/v) 3-nitrobenzyl alcohol as supercharger, ejected by in-source activation; protein 2 to 10 uM; Q Exactive UHMR; details: remark: other sources report otherwise
T3 chain: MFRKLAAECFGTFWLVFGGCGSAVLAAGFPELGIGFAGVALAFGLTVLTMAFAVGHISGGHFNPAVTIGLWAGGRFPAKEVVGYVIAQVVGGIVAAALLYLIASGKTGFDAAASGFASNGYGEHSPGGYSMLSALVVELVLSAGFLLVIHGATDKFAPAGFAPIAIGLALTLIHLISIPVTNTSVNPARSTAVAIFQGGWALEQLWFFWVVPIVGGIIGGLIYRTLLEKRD

[3] = biological target: the molecule itself; test: as above
[4] = biological target: the molecule itself; test: native MS; endogenous complexes ejected from E. coli BL21 native membrane vesicles (500 mM NH4Ac, 300 ug/ml protein, 5% (v/v) glycerol as supercharger), in-source activation; quadrupole isolation and complex-up analysis by HCD/CID; no detergent

NC(N)=NC(=O)CC(Nc1nc(N=C(N)N)nc(NC2CCC(NC(=O)Cn3nnc(-c4ccc(F)cc4)n3)CC2)n1)C1CC1 (centres unmarked) [MRL-494]
native MS of membrane vesicles, complex-up (HCD) of bound species [1]: The results provide direct evidence for MRL-494 BAM complex interaction

Cc1cc2nc3c(=O)[nH]c(=O)nc-3n(C[C@H](O)[C@H](O)[C@H](O)COP(=O)(O)OP(=O)(O)OC[C@H]3O[C@@H](n4cnc5c(N)ncnc54)[C@H](O)[C@@H]3O)c2cc1C [flavin adenine dinucleotide]
native MS complex-up (HCD), mass shift of ejected monomer [2]: identified the ligand as flavin adenine dinucleotide, an endogenous cofactor of DLDH

B1: AqpZ, P60844 1-231 (natural protein)
chain: T3 chain
stoichiometry N (AqpZ, P60844): 4

B2: semiSWEET (natural protein)
chain: MALIERIGKALEPLMLVMGLISPLATMPQLYKLYVSHSEHALGLSLTTWLLYSFIALLWTIYGIYHKNPTIWVGNCLGFLMYVAMVVGIIAHTGGTY
stoichiometry N [3]: 2

B3: dihydrolipoyl dehydrogenase (enzyme, UniProt P0A9P0 1-474, looked up)
chain: MSTEIKTQVVVLGAGPAGYSAAFRCADLGLETVIVERYNTLGGVCLNVGCIPSKALLHVAKVIEEAKALAEHGIVFGEPKTDIDKIRTWKEKVINQLTGGLAGMAKGRKVKVVNGLGKFTGANTLEVEGENGKTVINFDNAIIAAGSRPIQLPFIPHEDPRIWDSTDALELKEVPERLLVMGGGIIGLEMGTVYHALGSQIDVVEMFDQVIPAADKDIVKVFTKRISKKFNLMLETKVTAVEAKEDGIYVTMEGKKAPAEPQRYDAVLVAIGRVPNGKNLDAGKAGVEVDDRGFIRVDKQLRTNVPHIFAIGDIVGQPMLAHKGVHEGHVAAEVIAGKKHYFDPKVIPSIAYTEPEVAWVGLTEKEAKEKGISYETATFPWAASGRAIASDCADGMTKLIFDKESHRVIGGAIVGTNGGELLGEIGLAIEMGCDAEDIALTIHAHPTLHESVGLAAEVFEGSITDLPNPKAKKK
notes: dihydrolipoyl dehydrogenase (DLDH, gene lpdA), E. coli BL21, endogenous peripheral membrane protein; also called DLDH; lpdA; source: endogenous, E. coli BL21 membrane vesicles (N2 cavitation)
stoichiometry N [4]: 2
